Changes are numbered by the printed parent chain. Read-outs that look alike come from different tables or passages of the source. Each block holds one binder with its values, some of them ahead of it.
Legend:
dog AGR2 = molecular target: T1, dog AGR2 (dog, UniProt O95994 21-175 (human entry), limits assumed); assay: ELISA, antigen coated at 1 µg/mL, antibody titrated
T1 construct: Whole entry as named
T1 chain: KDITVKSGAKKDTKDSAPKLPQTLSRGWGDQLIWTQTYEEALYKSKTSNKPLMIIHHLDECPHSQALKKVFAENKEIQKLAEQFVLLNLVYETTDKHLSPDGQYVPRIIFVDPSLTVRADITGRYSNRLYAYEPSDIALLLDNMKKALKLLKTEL

macaque AGR2 = molecular target: T2, macaque AGR2 (macaque (rhesus monkey), UniProt O95994 21-175 (human entry), limits assumed); assay: as above
T2 construct: Whole entry as named; also called rhesus monkey AGR2
T2 chain: T1 chain with K1R, I3T, S7P, A17R, I109L, S135A, I137T

human AGR2 E60A = molecular target: T3, human AGR2 E60A (human, UniProt O95994 21-175); assay: as above
T3 construct: Whole entry as named; also called monomeric AGR2
T3 chain: T1 chain with K1R, I3T, S7P, A17R, E40A, I109M, S135A, I137T

human AGR2 WT [1] = molecular target: T4, human AGR2 WT (human, UniProt O95994 21-175); assay: as above
T4 construct: also called hAGR2; recombinant human AGR2
T4 sequence: T1 chain with K1R, I3T, S7P, A17R, I109M, S135A, I137T

mouse AGR2 = molecular target: T5, mouse AGR2 (mouse, UniProt O88312 21-175); assay: as above
T5 construct: Whole entry as named
T5 sequence: T1 chain with I3T, T13P, A17R, K44R, K50R, I54V, N74H, I109V, I137T, L141Y

human AGR2 WT [2] = molecular target: T4, human AGR2 WT; assay: kinetics of Table 4, antibody immobilized, hAGR2 analyte
human AGR2 WT [3] = molecular target: T4, human AGR2 WT; assay: kinetics, antibody immobilized, hAGR2 soluble analyte; instrument not stated
human AGR3 [4] = molecular target: T6, human AGR3 (human, UniProt Q8TD06 22-166, limits assumed); assay: ELISA on plate-coated antigen (1 µg/mL); antibody titrated 10 µg/mL to 0.15 ng/mL; anti-human IgG-HRP, OD 450 nm
T6 construct: Closest family member of AGR2, used as a specificity control in the ELISA
T6 sequence (looked up): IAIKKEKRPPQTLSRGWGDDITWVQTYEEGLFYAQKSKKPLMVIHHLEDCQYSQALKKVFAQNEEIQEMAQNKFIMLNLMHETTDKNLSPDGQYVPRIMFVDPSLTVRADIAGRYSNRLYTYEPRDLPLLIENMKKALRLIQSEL

BSA [5] = molecular target: T7, BSA (UniProt P02769 25-607); assay: as above
T7 construct: Negative control coating in the ELISA

human AGR3 [6] = molecular target: T6, human AGR3; assay: as above; remark: listed apart in the source
BSA [7] = molecular target: T7, BSA; assay: as above; remark: listed apart in the source
human AGR3 [8] = molecular target: T6, human AGR3; assay: as above; remark: listed apart in the source
BSA [9] = molecular target: T7, BSA; assay: as above; remark: listed apart in the source
human AGR3 [10] = molecular target: T6, human AGR3; assay: as above; remark: listed apart in the source
BSA [11] = molecular target: T7, BSA; assay: as above; remark: listed apart in the source
human AGR3 [12] = molecular target: T6, human AGR3; assay: as above; remark: listed apart in the source
BSA [13] = molecular target: T7, BSA; assay: as above; remark: listed apart in the source
human AGR3 [14] = molecular target: T6, human AGR3; assay: as above; remark: listed apart in the source
BSA [15] = molecular target: T7, BSA; assay: as above; remark: listed apart in the source

T7 sequence (P02769 25-607 limits assumed): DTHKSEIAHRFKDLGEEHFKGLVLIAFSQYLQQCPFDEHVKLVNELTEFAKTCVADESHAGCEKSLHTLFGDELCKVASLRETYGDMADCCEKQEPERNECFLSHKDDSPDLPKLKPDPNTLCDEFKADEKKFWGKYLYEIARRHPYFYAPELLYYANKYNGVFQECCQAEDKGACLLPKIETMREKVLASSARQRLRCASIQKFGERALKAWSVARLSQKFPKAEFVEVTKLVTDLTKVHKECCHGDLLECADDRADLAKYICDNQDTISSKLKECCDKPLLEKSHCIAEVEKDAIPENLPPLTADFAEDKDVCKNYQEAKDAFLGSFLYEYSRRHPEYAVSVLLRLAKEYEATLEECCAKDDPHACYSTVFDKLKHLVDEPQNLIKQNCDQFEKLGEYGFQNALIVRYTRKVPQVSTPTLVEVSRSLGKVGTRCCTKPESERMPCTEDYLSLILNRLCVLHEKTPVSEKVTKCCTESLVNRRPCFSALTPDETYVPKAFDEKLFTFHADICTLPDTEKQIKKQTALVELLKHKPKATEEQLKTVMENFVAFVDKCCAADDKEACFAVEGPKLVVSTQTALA

B1: TH-101 IgG1-LALA humanized monoclonal antibody (antibody, V domains shown)
VH: QVQLVQSGAEVKKPGASVKVSCKTSGYVFSRSWMNWVRQAPGQGLEWIGWIYPGDGDTNYNGKFKDRVTLTADKSTSTVYMELSSLRSEDTAVYFCARGGYDGSPWLSYWGQGTLVTVSS
VL: DIQMTQSPSSLSASVGDRVTITCKASQDINSYLSWFQQKPGKAPKTLIYRANRLVDGVPSRFSGSGSGQDFTLTISSLQPEDIATYYCLQYDEFPFTFGGGTKVEIKR
EC50 (dog AGR2): 0.42 nM
EC50 (macaque AGR2): 0.48 nM
EC50 (human AGR2 E60A): 1.24 nM
EC50 (human AGR2 WT [1]): 0.52 nM
EC50 (mouse AGR2): 0.28 nM
Kd (human AGR2 WT [2]): < 0.15 nM
Kd (human AGR2 WT [3]): 0.116 nM
koff (human AGR2 WT [3]): 3.52e-05 s⁻¹
kon (human AGR2 WT [3]): 303000 M⁻¹ s⁻¹
binding result (human AGR3 [4]): no binding (tested: 10 µg/mL)
binding result (BSA [5]): no binding (tested: 10 µg/mL)

B3: TH-106 IgG1-LALA humanized monoclonal antibody (antibody)
heavy: not shown
light: EIVLTQSPATLSLSPGERATLSCKASQDINSYLSWFQQKPGQAPRTLIYRANRLVDGIPARFSGSGSGQDFTLTISSLEPEDFAVYYCLQYDEFPFTFGGGTKVEIKRTVAAPSVFIFPPSDEQLKSGTASVVCLLNNFYPREAKVQWKVDNALQSGNSQESVTEQDSKDSTYSLSSTLTLSKADYEKHKVYACEVTHQGLSSPVTKSFNRGEC
EC50 (dog AGR2): 0.547 nM
EC50 (macaque AGR2): 0.547 nM
EC50 (human AGR2 E60A): 0.96 nM
EC50 (human AGR2 WT [1]): 0.633 nM
EC50 (mouse AGR2): 0.313 nM
Kd (human AGR2 WT [2]): < 0.15 nM
Kd (human AGR2 WT [3]): 0.00327 nM
koff (human AGR2 WT [3]): 1.07e-06 s⁻¹
kon (human AGR2 WT [3]): 326000 M⁻¹ s⁻¹
binding result (human AGR3 [8]): no binding (tested: 10 µg/mL)
binding result (BSA [9]): no binding (tested: 10 µg/mL)

B4: TH-106 IgG1 humanized monoclonal antibody (antibody)
heavy: not shown
light: B3 light
EC50 (dog AGR2): 0.66 nM
EC50 (macaque AGR2): 0.553 nM
EC50 (human AGR2 E60A): 1.1 nM
EC50 (human AGR2 WT [1]): 0.853 nM
EC50 (mouse AGR2): 0.3 nM
binding result (human AGR3 [10]): no binding (tested: 10 µg/mL)
binding result (BSA [11]): no binding (tested: 10 µg/mL)

Further lines, with some results ahead:

EC50 (dog AGR2): 0.48 nM
EC50 (macaque AGR2): 0.44 nM
EC50 (human AGR2 E60A): 0.92 nM
EC50 (human AGR2 WT [1]): 0.527 nM
EC50 (mouse AGR2): 0.3 nM
Kd (human AGR2 WT [2]): < 0.15 nM
Kd (human AGR2 WT [3]): 0.0278 nM
koff (human AGR2 WT [3]): 8.23e-06 s⁻¹
kon (human AGR2 WT [3]): 296000 M⁻¹ s⁻¹
binding result (BSA [7]): no binding (tested: 10 µg/mL)
B2: TH-104 IgG1-LALA humanized monoclonal antibody (antibody, V domains shown)
VH: QVQLVQSGSELKKPGASVKVSCKTSGYVFSRSWMNWVRQAPGQGLEWIGWIYPGDGDTNYNGKFKDRFVLSADKSVSTVYLQISSLKAEDTAVYFCARGGYDGSPWLSYWGQGTLVTVSS
VL: B1 VL
binding result (human AGR3 [6]): no binding (tested: 10 µg/mL)

EC50 (dog AGR2): 2.31 nM
EC50 (macaque AGR2): 2.15 nM
EC50 (human AGR2 E60A): 3.57 nM
EC50 (human AGR2 WT [1]): 2.37 nM
EC50 (mouse AGR2): 2.03 nM
Kd (human AGR2 WT [2]): < 0.15 nM
Kd (human AGR2 WT [3]): 0.0265 nM
koff (human AGR2 WT [3]): 8.74e-06 s⁻¹
kon (human AGR2 WT [3]): 329000 M⁻¹ s⁻¹
binding result (BSA [13]): no binding (tested: 10 µg/mL)
B5: TH-109 IgG1-LALA humanized monoclonal antibody (antibody, V domains shown)
VH: B2 VH
VL: EIVLTQSPATLSLSPGERATLSCKASQDINSYLSWFQQKPGQAPRTLIYRANRLVDGIPARFSGSGSGQDFTLTISSLEPEDFAVYYCLQYDEFPFTFGGGTKVEIKR
binding result (human AGR3 [12]): no binding (tested: 10 µg/mL)

EC50 (dog AGR2): 0.6 nM
EC50 (macaque AGR2): 0.62 nM
EC50 (human AGR2 E60A): 1.29 nM
EC50 (human AGR2 WT [1]): 0.813 nM
EC50 (mouse AGR2): 0.5 nM
Kd (human AGR2 WT [2]): < 0.15 nM
Kd (human AGR2 WT [3]): 0.063 nM
koff (human AGR2 WT [3]): 1.94e-05 s⁻¹
kon (human AGR2 WT [3]): 308000 M⁻¹ s⁻¹
binding result (BSA [15]): no binding (tested: 10 µg/mL)
B6: TH-115 IgG1-LALA humanized monoclonal antibody (antibody, V domains shown)
VH: QVQLLESGGGLVKPGGSLRLSCATSGYVFSRSWMNWIRQAPGQGLEWIGWIYPGDGDTNYNGKVKDRFTLSADKAKNSVYLQMNSLRAEDTAVYFCARGGYDGSPWLSYWGQGTLVTVSS
VL: EIVLTQSPDFQSVTPKEKVTITCKASQDINSYLSWFQQKPDQSPKTLIYRANRLVDGVPSRFSGSGSGQDFTLTINSLEAEDAATYYCLQYDEFPFTFGGGTKVEIKR
binding result (human AGR3 [14]): no binding (tested: 10 µg/mL)
